{"source": "paper PMC2835750", "about": "“A Direct Interaction with NEDD1 Regulates γ-Tubulin Recruitment to the Centrosome” (PLoS ONE, 2010)", "key": {"[1]": {"target": "the molecule itself", "test": "SEC-MALS; Superdex 200 HR 10/30, 50 mM NaP, 300 mM NaCl, 1 mM DTT, pH 8.0; oligomeric state"}, "[2]": {"target": "the molecule itself", "test": "SEC-MALS; data not shown; single peak not affected by dilution; oligomeric state"}}, "data": [{"protein": "NEDD1 CTD L642Q, GST removed (domain or fragment, human, UniProt Q8NHV4 572-660, looked up, source: E. coli BL21 star (DE3), purified (glutathione resin, thrombin, SEC)) ADSIGNNRQNAPLTSIQIRFIQNMIQETLDDFREACHRDIVNLQVEMIKQFHMQLNEMHSLLERYSVNEGQVAEIERLREENKRLRAHF", "values": [{"measurement": "stoichiometry N", "setting": "[1]", "value": 4}]}, {"protein": "NEDD1 CTD Y636A/S637A, GST removed (domain or fragment, human, UniProt Q8NHV4 572-660, looked up, also called YS (Y636A/S637A) mutant NEDD1; source: E. coli BL21 star (DE3), purified (glutathione resin, thrombin, SEC)) ADSIGNNRQNAPLTSIQIRFIQNMIQETLDDFREACHRDIVNLQVEMIKQFHMQLNEMHSLLERAAVNEGLVAEIERLREENKRLRAHF", "values": [{"measurement": "stoichiometry N", "setting": "[1]", "value": 4}]}, {"protein": "NEDD1 CTD (residues 572–660), GST removed (domain or fragment, human, UniProt Q8NHV4 572-660, looked up, calculated mass 10.5 kDa; also called NEDD1 CTD WT; purified CTD; source: E. coli BL21 star (DE3), purified (glutathione resin, thrombin, SEC)) ADSIGNNRQNAPLTSIQIRFIQNMIQETLDDFREACHRDIVNLQVEMIKQFHMQLNEMHSLLERYSVNEGLVAEIERLREENKRLRAHF", "values": [{"measurement": "stoichiometry N", "setting": "[1]", "value": 4}]}, {"protein": "NEDD1 CTD L642Q/L649Q/L656Q (3xLQ), GST removed (domain or fragment, human, UniProt Q8NHV4 572-660, looked up, also called triple 3×LQ; triple 3xLQ; source: E. coli BL21 star (DE3), purified (glutathione resin, thrombin, SEC)) ADSIGNNRQNAPLTSIQIRFIQNMIQETLDDFREACHRDIVNLQVEMIKQFHMQLNEMHSLLERYSVNEGQVAEIERQREENKRQRAHF", "values": [{"measurement": "stoichiometry N", "setting": "[1]", "value": 4}]}, {"protein": "NEDD1 fragment (residues 549–660) (domain or fragment, human, UniProt Q8NHV4 549-660, looked up, NEDD1, human, residues 549-660; predicted mass 12.8 kDa; also called additional fragment of NEDD1 that included residues 549–660) STPNPKIASSVTAGVASSLSEKIADSIGNNRQNAPLTSIQIRFIQNMIQETLDDFREACHRDIVNLQVEMIKQFHMQLNEMHSLLERYSVNEGLVAEIERLREENKRLRAHF", "values": [{"measurement": "stoichiometry N", "setting": "[2]", "value": 4}]}]}
